In the supplement of paper PMC11780869:

System: Bacillus subtilis
Experiment: cleaved RNA product abundance (RNA/gDNA barcode ratio) relative to median wild-type variant (ratio to wild type); higher = more accumulation of the downstream cleavage product
Details: cleavage site: cggR-gapA (positions -7 to +36 mutated)
Method in brief: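 Reporter mRNAs (truncated aprE or tetM) carrying barcoded, mutagenized RNase Y cleavage-site windows were made from oligos with a 9% error rate and integrated into the B. subtilis chromosome. Cultures grew in LB at 37°C from OD600 0.0003 to 0.3. Cleaved RNA was gel-selected, reverse transcribed and barcode-sequenced alongside genomic DNA barcodes, with UMI collapsing. Cleaved product abundance is the RNA:gDNA barcode ratio per variant, scaled to the median wild-type variant.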

[1] = experiment (reporter, strain, medium): exp 4a: truncated aprE reporter, strain BJT201 with 2% xylose (RNase J1 expressed)
[2] = experiment (reporter, strain, medium): exp 2b: truncated aprE reporter, strain BJT200
[3] = experiment (reporter, strain, medium): exp 6: tetM reporter, strain 168

| Sequence | cleaved RNA product abundance [1] | cleaved RNA product abundance [2] | cleaved RNA product abundance [3] |
| --- | --- | --- | --- |
| ACAGACGAAGGAGCCGCAAAGAAGTTATTCAGGGTTGAATAATCCCTCAATATAAATATCTCTCACTTATTTAAA | 0.412 | – | – |
| ACAGACGAAGGAGCCGCAAAGAAGTTATTCAGGTATAAATAATCCCTCAATATAAATATCTCTCACTTATTTAAA | 0.118 | – | – |
| ACAGACGAAGGAGCCGCAAAGAAGTTATTCAGGTATGAATAATCCCTCAATATAAATATCTCTCACTTATTTAAA | 0.161 | – | – |
| ACAGACGAAGGAGCCGCAAAGAAGTTATTCAGGTATGTATAATCCCTCAATATAAATATCTCTCACTTATTTAAA | 0.143 | – | – |
| ACAGACGAAGGAGCCGCAAAGAAGTTATTCATGGATGAATAATCCCTCAATATAAATATCTCTCACTTATTTAAA | 0.137 | – | – |
| ACAGACGAAGGAGCCGCAAAGAAGTTATTCTGGGATGAATAATCCCTCAATATAAATATCTCTCACTTATTTAAA | 0.742 | – | – |
| ACAGACGAAGGAGCCGCAAAGAAGTTATTGAGGCATGAATAATCCCTCAATATAAATATCTCTCACTTATTTAAA | 0.0717 | 0.0906 | – |
| ACAGACGAAGGAGCCGCAAAGAAGTTATTGAGGGATGAATAATCCCTAAATATAAATATCTCTCACTTATTTAAA | 0.897 | – | – |
| ACAGACGAAGGAGCCGCAAAGAAGTTATTGAGGGATGAATAATCCCTCAATATAAATATCTCTCACTTATTTAAA | 0.0555 | 0.116 | 0.247 |
| ACAGACGAAGGAGCCGCAAAGAAGTTATTGAGGGATGAATAATCCCTCAATATACATATCTCTCACTTATTTAAA | 0.0596 | – | – |
| ACAGACGAAGGAGCCGCAAAGAAGTTATTGAGGGATGAATACTCCCTCAATATAAATATCTCTCACTTATTTAAA | 0.0909 | – | – |
| ACAGACGAAGGAGCCGCAAAGAAGTTATTGAGGGATGAATTATCCCTCAATATAAATATCTCTCACTTATTTAAA | 0.0896 | – | – |
| ACAGACGAAGGAGCCGCAAAGAAGTTATTGAGGGCTGAATAATCCCTCAATATAAATATCTCTCACTTATTTAAA | 0.167 | – | – |
| ACAGACGAAGGAGCCGCAAAGAAGTTATTGCGGGATGAATAATCCCTCAATATAAATATCTCTCACTTATTTAAA | 0.869 | – | – |
| ACAGACGAAGGAGCCGCAAAGAAGTTATTTAAGGATGAATAATCCCTCAATATAAATATCTCTCACTTATTTAAA | 0.182 | 0.125 | – |
| ACAGACGAAGGAGCCGCAAAGAAGTTATTTAAGGGATGAATAATCCCTCAATATAAATATCTCTCACTTATTTAA | 0.315 | – | – |
| ACAGACGAAGGAGCCGCAAAGAAGTTATTTAGCGATGAATAATCCCTCAATATAAATATCTCTCACTTATTTAAA | 0.0809 | 0.117 | – |
| ACAGACGAAGGAGCCGCAAAGAAGTTATTTAGGAATGAATAATCCCTCAATATAAATATCTCTCACTTATTTAAA | 0.127 | – | – |
| ACAGACGAAGGAGCCGCAAAGAAGTTATTTAGGCATGAATAATCCCTCAATATAAATATCTCTCACTTATTTAAA | 0.135 | 0.0926 | – |
| ACAGACGAAGGAGCCGCAAAGAAGTTATTTAGGGAAGAATAATCCCTCAATATAAATATCTCTCACTTATTTAAA | 0.572 | – | – |
| ACAGACGAAGGAGCCGCAAAGAAGTTATTTAGGGATAAATAATCCCTCAATATAAATATCTCTCACTTATTTAAA | 0.696 | 0.577 | – |

| Sequence | cleaved RNA product abundance [1] | cleaved RNA product abundance [2] | cleaved RNA product abundance [3] |
| --- | --- | --- | --- |
| ACAGACGAAGGAGCCGCAAAGAAGTTATTTAGGGATCAATAATCCCTCAATATAAATATCTCTCACTTATTTAAA | 0.787 | – | – |
| ACAGACGAAGGAGCCGCAAAGAAGTTATTTAGGGATGAACAATCCCTCAATATAAATATCTCTCACTTATTTAAA | 0.85 | – | – |
| ACAGACGAAGGAGCCGCAAAGAAGTTATTTAGGGATGAAGAATCCCTCAATATAAATATCTCTCACTTATTTAAA | 0.607 | – | – |
| ACAGACGAAGGAGCCGCAAAGAAGTTATTTAGGGATGAATAACCCCTCAATATAAATATCTCTCACTTATTTAAA | 0.288 | – | – |
| ACAGACGAAGGAGCCGCAAAGAAGTTATTTAGGGATGAATAATACCTCAATATAAATATCTCTCACTTATTTAAA | 0.141 | – | – |
| ACAGACGAAGGAGCCGCAAAGAAGTTATTTAGGGATGAATAATCACTCAATATAAATATCTCTCACTTATTTAAA | 0.137 | – | – |
| ACAGACGAAGGAGCCGCAAAGAAGTTATTTAGGGATGAATAATCCATCAATATAAATATCTCTCACTTATTTAAA | 0.34 | – | – |
| ACAGACGAAGGAGCCGCAAAGAAGTTATTTAGGGATGAATAATCCCACAATATAAATATCTCTCACTTATTTAAA | 0.268 | – | – |
| ACAGACGAAGGAGCCGCAAAGAAGTTATTTAGGGATGAATAATCCCTAAATATAAATATCTCTCACTTATTTAAA | – | 0.353 | – |
| ACAGACGAAGGAGCCGCAAAGAAGTTATTTAGGGATGAATAATCCCTCAAGATAAATATCTCTCACTTATTTAAA | – | 0.16 | – |
| ACAGACGAAGGAGCCGCAAAGAAGTTATTTAGGGATGAATAATCCCTCAATACAAATATCTCTCACTTATTTAAA | 0.0541 | – | – |
| ACAGACGAAGGAGCCGCAAAGAAGTTATTTAGGGATGAATAATCCCTCAATATAAAAATCTCTCACTTATTTAAA | 0.601 | – | – |
| ACAGACGAAGGAGCCGCAAAGAAGTTATTTAGGGATGAATAATCCCTCAATATAAACATCTCTCACTTATTTAAA | 0.701 | – | – |
| ACAGACGAAGGAGCCGCAAAGAAGTTATTTAGGGATGAATAATCCCTCAATATAAATATCTCTCACTTATTTAAA | 0.799 | 0.704 | 0.636 |
| ACAGACGAAGGAGCCGCAAAGAAGTTATTTAGGGATGAATAATCCCTCAATATAATTATCTCTCACTTATTTAAA | 0.52 | – | – |
| ACAGACGAAGGAGCCGCAAAGAAGTTATTTAGGGATGAATAATCCCTCAATATACATATCTCTCACTTATTTAAA | 0.312 | – | – |
| ACAGACGAAGGAGCCGCAAAGAAGTTATTTAGGGATGAATAATCCCTCAATTTAAATATCTCTCACTTATTTAAA | 0.119 | – | – |
| ACAGACGAAGGAGCCGCAAAGAAGTTATTTAGGGATGAATAATCCCTGAATATAAATATCTCTCACTTATTTAAA | 0.559 | – | – |
| ACAGACGAAGGAGCCGCAAAGAAGTTATTTAGGGATGAATAATCCCTTAATATAAATATCTCTCACTTATTTAAA | 1.39 | – | – |
| ACAGACGAAGGAGCCGCAAAGAAGTTATTTAGGGATGAATAATCCGTCAATATAAATATCTCTCACTTATTTAAA | 0.247 | 0.169 | – |
| ACAGACGAAGGAGCCGCAAAGAAGTTATTTAGGGATGAATAATCCTTCAATATAAATATCTCTCACTTATTTAAA | 0.531 | – | – |

| Sequence | cleaved RNA product abundance [1] | cleaved RNA product abundance [2] | cleaved RNA product abundance [3] |
| --- | --- | --- | --- |
| ACAGACGAAGGAGCCGCAAAGAAGTTATTTAGGGATGAATAATCGCTCAATATAAATATCTCTCACTTATTTAAA | 0.0995 | – | – |
| ACAGACGAAGGAGCCGCAAAGAAGTTATTTAGGGATGAATAATCTCTCAATATAAATATCTCTCACTTATTTAAA | 0.646 | – | – |
| ACAGACGAAGGAGCCGCAAAGAAGTTATTTAGGGATGAATAATTCCTCAATATAAATATCTCTCACTTATTTAAA | 0.405 | – | – |
| ACAGACGAAGGAGCCGCAAAGAAGTTATTTAGGGATGAATCATCCCTCAATATAAATATCTCTCACTTATTTAAA | 0.542 | – | – |
| ACAGACGAAGGAGCCGCAAAGAAGTTATTTAGGGATGACTAATCCCTCAATATAAATATCTCTCACTTATTTAAA | 0.541 | – | – |
| ACAGACGAAGGAGCCGCAAAGAAGTTATTTAGGGATGATTAATCCCTCAATATAAATATCTCTCACTTATTTAAA | 0.659 | – | – |
| ACAGACGAAGGAGCCGCAAAGAAGTTATTTAGGGATTAATAATCCCTCAATATAAATATCTCTCACTTATTTAAA | 1.08 | 0.951 | – |
| ACAGACGAAGGAGCCGCAAAGAAGTTATTTAGGGTTGAATAATCCCTCAATATAAATATCTCTCACTTATTTAAA | 0.344 | 0.225 | – |
| ACAGACGAAGGAGCCGCAAAGAAGTTATTTAGGTATGAATAATCCCTCAATATAAATATCTCTCACTTATTTAAA | 0.165 | 0.121 | – |
| ACAGACGAAGGAGCCGCAAAGAAGTTATTTAGTGATGAATAATCCCTCAATATAAATATCTCTCACTTATTTAAA | 0.111 | 0.0988 | – |
| ACAGACGAAGGAGCCGCAAAGAAGTTATTTATGGATGAATAATCACTCAATATAAATATCTCTCACTTATTTAAA | 0.124 | – | – |
| ACAGACGAAGGAGCCGCAAAGAAGTTATTTATGGATGAATAATCCCTCAATATAAATATCTCTCACTTATTTAAA | 0.165 | – | – |
| ACAGACGAAGGAGCCGCAAAGAAGTTCATAAGGGATGAATAATCCCTCAATATAAATATCTCTCACTTATTTAAA | – | 0.162 | – |
| ACAGACGAAGGAGCCGCAAAGAAGTTCTGAAGGGATGAATAATCCCTCAATATAAATATCTCTCACTTATTTAAA | – | 0.193 | – |
| ACAGACGAAGGAGCCGCAAAGAAGTTCTTAAAGGATGAATAATCCCTCAATATAAATATCTCTCACTTATTTAAA | 0.112 | – | – |
| ACAGACGAAGGAGCCGCAAAGAAGTTCTTAAGAGATGAATAATCCCTCAATATAAATATCTCTCACTTATTTAAA | 0.117 | – | – |
| ACAGACGAAGGAGCCGCAAAGAAGTTCTTAAGGAATGAATAATCCCTCAATATAAATATCTCTCACTTATTTAAA | 0.133 | – | – |
| ACAGACGAAGGAGCCGCAAAGAAGTTCTTAAGGCATGAATAATCCCTCAATATAAATATCTCTCACTTATTTAAA | 0.122 | 0.092 | – |
| ACAGACGAAGGAGCCGCAAAGAAGTTCTTAAGGGAAGAATAATCCCTCAATATAAATATCTCTCACTTATTTAAA | 0.113 | – | – |
